B1: DYRK1B (parent)
chain: KKVLNHGYDDDNHDYIVRSGERWL

Variants of: B1
Test: protein stability index of a GFP-peptide fusion (GPS, HEK-293T) (PSI 1-6); higher = more stable
Conditions: c terminus: a fixed tail appended
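Further: lentivirally expressed fusions sorted by FACS into six bins by GFP to DsRed ratio, PSI derived from sequencing read proportions per bin multiplied by bin number.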

Protein stability index of substitutions, site by site:
D14: C 2.64 | E 3.03 | F 2.21 | G 2.71 | H 3.03 | I 2.37 | K 3 | L 1.67 | M 2.58 | N 3.12 | P 2.71 | Q 2.35 | R 2.86 | S 2.82 | T 2.79 | V 2.13 | W 1.85 | Y 2.55
Y15: A 3.79 | C 3.58 | D 4.19 | E 4.02 | F 3.09 | G 3.82 | H 3.42 | I 3.5 | K 3.56 | L 3.05 | M 3.27 | N 3.88 | P 3.6 | Q 4.05 | R 3.72 | S 3.32 | T 2.95 | V 3.38 | W 3.07
I16: A 3.73 | C 3.48 | D 3.84 | E 4.17 | F 3.09 | G 3.71 | H 3.23 | K 3.49 | L 3.09 | M 3.32 | N 3.24 | P 3.55 | Q 3.58 | R 3.49 | S 3.68 | T 3.47 | V 3.86 | W 2.71 | Y 3.89
V17: A 3.11 | C 2.6 | D 3.56 | E 4.03 | F 2.74 | G 3.36 | H 3.46 | I 2.55 | K 3.4 | L 3.07 | M 2.98 | N 3.65 | P 3.86 | Q 3.57 | R 3.53 | S 3.36 | T 2.97 | W 2.56 | Y 2.94
R18: A 3 | C 2.82 | D 3.78 | E 3.75 | F 2.39 | G 3.45 | H 3.4 | I 2.62 | K 3.74 | L 2.39 | M 2.39 | N 2.9 | P 3.24 | Q 3.78 | S 3.1 | T 2.92 | V 2.67 | W 2.38 | Y 2.48
S19: A 3.57 | C 2.59 | D 3.64 | E 3.25 | F 2.29 | G 3.25 | H 3.91 | I 2.07 | K 3.2 | L 2.42 | M 2.6 | N 3.22 | P 2.51 | Q 3.46 | R 2.78 | T 3.06 | V 2.98 | W 2.21 | Y 2.53
G20: A 2.73 | C 2.95 | D 3.22 | E 3.65 | F 2.04 | H 2.67 | I 2.73 | K 3.32 | L 1.88 | M 2.13 | N 3.29 | P 3.2 | Q 3.34 | R 3.54 | S 3.01 | T 2.83 | V 2.03 | W 2.31 | Y 2.23
E21: A 2.97 | C 2.19 | D 2.86 | F 2.16 | G 2.57 | H 2.4 | I 2.16 | K 3.1 | L 3.02 | M 2.57 | N 2.67 | P 2.61 | Q 3.05 | R 2.83 | S 2.42 | T 2.7 | V 2.28 | W 2.57 | Y 2.32
R22: A 3.15 | C 2.85 | D 3.44 | E 3.58 | F 1.91 | G 3.19 | H 3.13 | I 2.17 | K 3.29 | L 2.25 | M 2.57 | N 3.31 | P 3.16 | Q 3.53 | S 3.35 | T 2.83
